Data published in publication PMC10999177, “miR‐1246 promotes osteosarcoma cell migration via NamiRNA‐enhancer network dependent on Argonaute 2”.

Target: hAGO2 (Homo sapiens, UniProt Q9UKV8 1-859)
Assay: EMSA; 20 nM probe, binding buffer of cited ref. 28 (composition and pH not given), on ice 30 min; 5% native PAGE, 0.5x TBE, 100 V 50 min
Conditions: protein: recombinant; tags: MBP-tag removed by thrombin; HisTrap purification (His tag implied); label: 5'-Cy5; single strand

Chain of hAGO2 (Q9UKV8 whole entry): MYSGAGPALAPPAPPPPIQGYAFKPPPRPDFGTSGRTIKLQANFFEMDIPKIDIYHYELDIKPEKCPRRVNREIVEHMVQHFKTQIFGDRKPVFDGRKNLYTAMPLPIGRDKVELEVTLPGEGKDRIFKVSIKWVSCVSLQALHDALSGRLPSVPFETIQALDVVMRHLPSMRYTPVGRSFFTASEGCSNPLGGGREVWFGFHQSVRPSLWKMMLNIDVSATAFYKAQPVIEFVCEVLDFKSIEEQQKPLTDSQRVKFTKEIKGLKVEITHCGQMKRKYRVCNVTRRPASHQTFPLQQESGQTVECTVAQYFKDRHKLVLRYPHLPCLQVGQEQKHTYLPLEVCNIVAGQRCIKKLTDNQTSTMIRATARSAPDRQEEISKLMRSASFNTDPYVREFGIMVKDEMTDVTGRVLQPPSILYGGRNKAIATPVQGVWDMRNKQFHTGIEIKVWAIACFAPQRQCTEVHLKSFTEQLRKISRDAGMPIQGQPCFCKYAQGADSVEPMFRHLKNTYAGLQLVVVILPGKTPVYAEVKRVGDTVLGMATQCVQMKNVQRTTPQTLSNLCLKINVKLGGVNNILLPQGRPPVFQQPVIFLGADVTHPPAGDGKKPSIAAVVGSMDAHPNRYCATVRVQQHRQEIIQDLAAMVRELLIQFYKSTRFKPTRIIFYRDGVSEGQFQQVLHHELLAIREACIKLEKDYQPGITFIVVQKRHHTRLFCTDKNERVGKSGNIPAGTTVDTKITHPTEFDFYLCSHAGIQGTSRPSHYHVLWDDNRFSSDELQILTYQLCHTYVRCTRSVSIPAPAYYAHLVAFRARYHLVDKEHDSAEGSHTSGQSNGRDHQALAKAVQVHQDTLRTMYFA

## AAUGGAUUUUUGGAGCAGG (ssRNA) [5'Cy5-miR-1246]
  Kd: 12.2 ± 1.8 nM
